Data: publication doi:10.1101/2021.12.16.472998 (bioRxiv, 2021)

Assays:
[1] = target: endogenous LY6S-iso1 protein in human spleen cells (Homo sapiens, UniProt P0DTL4); assay: immunostaining of cells or tissue
[2] = target: native LY6S-iso1 protein (hLY6S-E, with its endogenous signal peptide) expressed in HEK293 cells (Homo sapiens, UniProt P0DTL4); assay: immunostaining of cells or tissue
[3] = target: recombinant hFc-LY6S-iso1 fusion protein (Homo sapiens, UniProt P0DTL4); assay: immunoblot
recombinant hFc-LY6S-iso1 fusion protein, sequence (P0DTL4 27-134): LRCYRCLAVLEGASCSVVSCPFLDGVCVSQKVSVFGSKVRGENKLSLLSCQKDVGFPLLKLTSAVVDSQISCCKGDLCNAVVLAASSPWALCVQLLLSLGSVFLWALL

endogenous LY6S-iso1 protein in human spleen cells, sequence (P0DTL4 27-134): as above
native LY6S-iso1 protein (hLY6S-E, with its endogenous signal peptide) expressed in HEK293 cells, sequence (P0DTL4 27-134): as above

binding result [1]: binds
binding result [2]: binds
binding result [3]: binds
B1: anti-LY6S-iso1 monoclonal antibody 5E12 (antibody, V domains shown)
VH: QVQLKQSGAELVRPGASVKLSCKAWGYTFTGYEMHWVKQTPVHGLEWIGAIYPGSGGTAYNQKFKGQATLTVDKSSNTAYIELSSLTSEDSAVYYCTVYDFWGQGTTLTVSS
VL: DVVMTQTPLSLPVGLGDHASISCRSSQSLLKSDGNTYLHWYLQKSGQSPKLLIYKVSNRFSGVPDRFSGSGSGTDFTLKISRVEAEDLGVYFCSQSTHVPYTFGGGTKLEIK
